The results in this text go back to patent US20140363438A1, “NEUREGULIN ANTIBODIES AND USES THEREOF” (Genentech, Inc., priority 2011, published 2014).

Assay [1] addresses T1, Recombinant human NRG1-α EGF domain (R&D Systems, cat#296-HR/CF) (human, UniProt Q02297 177-241).
T1 construct: also called NRG1-alpha; HRG1α
T1 sequence: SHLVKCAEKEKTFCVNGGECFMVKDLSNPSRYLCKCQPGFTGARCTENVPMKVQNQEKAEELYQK
As to the kind of experiment: competition ELISA on NRG1α; signal of 526.90 against rising 538.24.71.

Assay [2] addresses T2, Recombinant human NRG1-β ECD domain (R&D Systems, cat#377-HB/CF) (human, UniProt Q02297-11 121-191, limits assumed).
T2 construct: also called NRG1-beta; HRG1β
T2 sequence: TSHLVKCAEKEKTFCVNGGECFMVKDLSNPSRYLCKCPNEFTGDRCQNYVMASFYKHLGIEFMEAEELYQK
Description: competition ELISA on NRG1β; self-competition, signal read: 538.24.71.

Assay [3] concerns the target T2, Recombinant human NRG1-β ECD domain …. Description: competition ELISA on NRG1β; competitor whose signal is read: 526.90.
Assay [4] addresses T1, Recombinant human NRG1-α EGF domain …. As to the kind of experiment: competition ELISA on NRG1α; competitor whose signal is read: 526.02.
Another assay addresses T3, Betacellulin (BTC) (UniProt P35070 32-111).
T3 sequence (looked up): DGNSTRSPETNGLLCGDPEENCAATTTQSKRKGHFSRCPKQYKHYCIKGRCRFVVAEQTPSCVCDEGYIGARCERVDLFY
As to the kind of experiment: ELISA.

The next assay has as its target HB-EGF (UniProt Q99075 63-148, limits assumed). As to the kind of experiment: ELISA.
Another assay addresses EGF (UniProt P01133 971-1023). Description: ELISA.
Assay [5] deals with T1, Recombinant human NRG1-α EGF domain …. Description: competition ELISA on NRG1α; competitor whose signal is read: 526.90.
Assay [6] shares this target. Description: competition ELISA on NRG1α; self-competition, signal read: 538.24.71.
Assay [7] shares this target. Description: cell-based or functional assay.
Assay [8] addresses T4, Recombinant human Neuregulin 1-beta (rhNRG1b, Genentech) (human, UniProt Q02297 1-640).
T4 sequence: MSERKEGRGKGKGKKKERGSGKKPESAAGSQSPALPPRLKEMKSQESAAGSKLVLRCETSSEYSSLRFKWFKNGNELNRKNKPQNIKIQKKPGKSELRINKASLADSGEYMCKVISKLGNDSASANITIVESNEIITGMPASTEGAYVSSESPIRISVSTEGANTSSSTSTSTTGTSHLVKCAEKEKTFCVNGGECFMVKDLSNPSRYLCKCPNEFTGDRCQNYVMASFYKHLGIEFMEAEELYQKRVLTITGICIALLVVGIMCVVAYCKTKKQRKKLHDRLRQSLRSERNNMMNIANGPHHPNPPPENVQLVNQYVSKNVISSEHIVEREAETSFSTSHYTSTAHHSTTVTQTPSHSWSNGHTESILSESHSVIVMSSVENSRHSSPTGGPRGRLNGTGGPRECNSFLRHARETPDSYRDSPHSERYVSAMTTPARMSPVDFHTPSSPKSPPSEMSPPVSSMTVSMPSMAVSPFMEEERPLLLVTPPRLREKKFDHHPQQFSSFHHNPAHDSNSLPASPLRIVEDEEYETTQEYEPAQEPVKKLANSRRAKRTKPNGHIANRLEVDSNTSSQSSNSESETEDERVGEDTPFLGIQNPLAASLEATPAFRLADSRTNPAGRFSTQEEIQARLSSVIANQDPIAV
Description: cell-based or functional assay.

The target in assay [9] is T1, Recombinant human NRG1-α EGF domain …. Description: SPR (BIAcore T100), IgG captured by anti-human Fc, NRG1α injected; table under the head '250 nM NRG1-alpha'. How it is done:
(§1) Binding affinities of anti-NRG1 IgGs were measured by Surface Plasmon Resonance (SRP) using a BIAcore™-T100 instrument. Anti-NRG1 human IgGs were captured by mouse anti-human Fc antibody (GE Healthcare, cat# BR-1008-39) coated on CM5 biosensor chips to achieve approximately 1000 response units (RU). […] Association rates (kₒₙ) and dissociation rates (koff) were calculated using a simple one-to-one Langmuir binding model (BIAcore Evaluation Software version 3.2). The equilibrium dissociation constant (KD) was calculated as the ratio koff/kₒₙ.

Assay [10] concerns the target T2, Recombinant human NRG1-β ECD domain …. As to the kind of experiment: SPR (BIAcore T100), IgG captured by anti-human Fc, NRG1β injected; sensorgram shown for 6.25 nM (sheet: '6.25 mnM NRG beta'). How it is done:
as §1

Assay [11] shares this target. Description: SPR (BIAcore T100), IgG captured by anti-human Fc; table under the head '125nM NRG-beta'; this table is identical to that of FIG. 9 (NRG1-alpha) and does not fit the slow dissociation of the sensorgrams above it.
Assay [12] has the same target. As to the kind of experiment: competition ELISA on NRG1β; competitor whose signal is read: 526.02.
Assay [13] concerns the target T1, Recombinant human NRG1-α EGF domain …. As to the kind of experiment: SPR (BIAcore T100), IgG captured by anti-human Fc, NRG1α injected; sensorgram shown for 6.25 nM (sheet: '6.25 mnM NRG alpha'). The procedure:
as §1

For a further assay, the target named is T5, NRG1β (Homo sapiens, UniProt Q02297).
T5 sequence (Q02297 177-244 isoform Q02297-6 limits assumed): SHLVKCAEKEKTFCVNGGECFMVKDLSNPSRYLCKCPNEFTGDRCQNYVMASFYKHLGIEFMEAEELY
As to the kind of experiment: Inhibition of 125I-HRG (NRG1β) binding to HER3-ECD-Fc. To be noted: affinity matured clones of 538.24, FIG. 7. How it is done:
The antibodies were tested for their ability to inhibit NRG1β binding to HER3-Fc. 125I-HRG was generated at Genentech as described previously (Sliwkowski et al JBC 1994). Binding assays were performed in Nunc break-apart strip wells (Thermo-Fisher Scientific, Rochester, N.Y.). Plates were coated at 4° C. overnight with 250 ng/well of HER3-ECD-Fc fusion protein in carbonate buffer (pH 9.6). Plates were rinsed twice with wash buffer (PBS/0.05% Tween 20) and blocked with 100 μL PBS including 1% bovine serum albumin (BSA) for 30 minutes. Increasing concentrations of anti-NRG1 antibodies in RPMI 1640 medium (Invitrogen; Carlsbad, Calif.) with 0.2% BSA were pre-bound to HER3-ECD-Fc. 125I-HRG (specific activity: 266 mCi/mg, 75,000 cpm/well) was added immediately after in a total assay volume of 130 μL. Plates were incubated for 2 hours at room temperature, rinsed twice, and individual wells were counted using a 100 Series Iso Data γ-counter. Samples were assayed in triplicates. Plotting was performed using KaleidaGraph 3.6 software. […]
The affinity matured variants were tested for their ability to block HRGβ binding to HER3-Fc. […] Plates were incubated for 2 hours at room temperature, rinsed twice, and individual wells were counted using a 100 Series Iso Data γ-counter. […]

The target in assay [14] is T1, Recombinant human NRG1-α EGF domain …. As to the kind of experiment: SPR (BIAcore T100), IgG captured by anti-human Fc, 250 nM NRG1α injected; sensorgram. How it is done: as §1

EGF, sequence (P01133 971-1023 limits assumed): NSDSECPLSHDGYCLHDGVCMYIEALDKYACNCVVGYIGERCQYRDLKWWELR
HB-EGF, sequence (Q99075 63-148 limits assumed): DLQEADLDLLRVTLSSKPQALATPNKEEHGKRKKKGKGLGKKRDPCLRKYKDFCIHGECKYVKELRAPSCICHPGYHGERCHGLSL

B1: anti-NRG1 antibody 526.90 (antibody, human IgG1, V domains shown)
VH: EVQLVESGGGLVQPGGSLRLSCAASGFTFSGNAMSWVRQAPGKGLEWVSWIYPSGGNTYYADSVKGRFTISADTSKNTAYLQMNSLRAEDTAVYYCARSYILSYPSITWAFDYWGQGTLVTVSS
VL: DIQMTQSPSSLSASVGDRVTITCRASQSISSYLAWYQQKPGKAPKLLIYGASSRASGVPSRFSGSGSGTDFTLTISSLQPEDFATYYCQQSYSTPITFGQGTKVEIKR
notes: also called YW526.90
In the case of B1, the binding result in [1] is given as “binds”.

B2: anti-NRG1 antibody 538.24.71 (antibody, human IgG1, kappa, V domains shown)
VH: EVQLVESGGGLVQPGGSLRLSCAASGFTFSGTWIHWVRQAPGKGLEWVAAITPADGSTNYADSVKGRFTISADTSKNTAYLQMNSLRAEDTAVYYCATYMFAMDYWGQGTLVTVSS
VL: DIQMTQSPSSLSASVGDRVTITCRASQDVSISLAWYQQKPGKAPKLLIYGASNLESGVPSRFSGSGSGTDFTLTISSLQPEDFATYYCQQHYTLPFTFGQGTKVEIKR
notes: also called YW538.24.71
As for B2, the “IC50 (read off the curve)” value in [2] is around 7 nM; in assay [3], around 8 nM; in [4], around 5 nM; in assay [5] it was around 4 nM; in assay [6], around 3 nM; in [12], around 2 nM. For the same molecule, the binding result with Betacellulin (BTC), with HB-EGF and with EGF was “no binding” in each case. The “IC50 of inhibition of Her3 activation (phosphorylation), KIRA on MCF-7 cells, 0.5 nM rhNRG1a” value in [7] came to 14 nM. In addition, in assay [8], the “IC50 of inhibition of Her3 activation (phosphorylation), KIRA on MCF-7 cells, 0.2 nM rhNRG1b” value was determined as 0.12 nM. Moreover, the Kd was 2 nM in assay [9], 0.00192 nM in [10], 2 nM in assay [11] and 1.32 nM in [13]. Moreover, the dissociation rate constant (koff) in [9] worked out at 0.03 s⁻¹; in assay [10] it was 1.48e-06 s⁻¹; in assay [11], 0.03 s⁻¹; in [13] it was 0.00603 s⁻¹. The kon stood at 1.5e+07 M⁻¹ s⁻¹ in assay [9], 771000 M⁻¹ s⁻¹ in assay [10], 1.5e+07 M⁻¹ s⁻¹ in assay [11] and 4.57e+06 M⁻¹ s⁻¹ in assay [13].

B3: 538.24.38: affinity matured variant of 538.24; VH SEQ ID NO: 21, VL SEQ ID NO: 25 (antibody, V domains shown)
VH: EVQLVESGGGLVQPGGSLRLSCAASGFTFSGTWIHWVRQAPGKGLEWVAAITPADGSTNYADSVKGRFTISADTSKNTAYLQMNSLRAEDTAVYYCATYMFAMDYWGQGTLVTVSS
VL: DIQMTQSPSSLSASVGDRVTITCRASQDVSTAVAWYQQKPGKAPKLLIYSASFLYSGVPSRFSGSGSGTDFTLTISSLQPEDFATYYCQQSYTIPMTFGQGTKVEIKR
modifications: Heavy chain variable region; Light chain variable region
B3: the “blocking of 125I-NRG1β binding to Her3” value in the assay with NRG1β was “All but 538.24.38 are highly effective in blocking binding”.

B4: 538.24.38 (antibody, V domains shown)
VH: EVQLVESGGGLVQPGGSLRLSCAASGFTFSGTWIHWVRQAPGKGLEWVAAITPADGSTNYADSVKGRFTISADTSKNTAYLQMNSLRAEDTAVYYCATYMFAMDYWGQGTLVTVSS
VL: DIQMTQSPSSLSASVGDRVTITCRASQDVSTAVAWYQQKPGKAPKLLIYSASFLYSGVPSRFSGSGSGTDFTLTISSLQPEDFATYYCQQSYTIPMTFGQGTKVEIK
notes: also called YW538.24.38; copies: 2 + 2
For B4, the binding result in assay [14] is on record as “binds”.
